Measured values as given in the supplement of paper PMC10126150.
± gives the standard deviation of the averaged measurements.

Test system: ATP
Experiment: switch fluorescence ratio, 500 uM ATP over buffer (Cy3 cluster intensity, sum of 5 cycles each) (fold (ratio)); higher = stronger signal-on switching upon ATP binding; sequences stand for … in TCGTCGGCAGCGTCAGATGTGTATAAGAGACAGTTTTTTTTTTTTTTTTTTTTTTTTT…TC
Settings: aptamer strand: ATP DNA aptamer (quencher-CACCTGGGGGAGTATTGCGGAGGAAGG + anchor), 100 nM annealed; ATP concentration: 500 uM
Summary of the method: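 For every switch-domain sequence, the fluorescence ratio is the mean of per-cluster values, each being summed target-cycle Cy3 intensity over summed buffer-cycle Cy3 intensity. Clusters outside 100-1000 RFU were excluded. On a modified Illumina MiSeq flow-cell, the Cy3-labelled switching-strand clusters were annealed to 100 nM quencher-labelled ATP aptamer, imaged in selection buffer and then after 15 min with 500 uM ATP at 22 °C. Five such cycles were run, with NaOH stripping and re-annealing between them.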
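Note: ATP exposure 15 min at 22 °C before imaging.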

Point of comparison: GATCCACGTG, switch fluorescence ratio 1.03 ± 0.015. Against it:
- GAGTGTGAAA — lower, 0.978 ± 0.035
- GAGTGTGGGC — within error, 1.01 ± 0.099
- GAGTGTTAGG — lower, 0.996 ± 0.013
- GAGTGTTGGT — within error, 1 ± 0.022
- GAGTTAAAGT — within error, 1.01 ± 0.014
- GAGTTCACGT — within error, 1.04 ± 0.013
- GAGTTCAGGT — within error, 1.01 ± 0.019
- GAGTTCTTG — lower, 0.986 ± 0.023
- GAGTTGAATT — within error, 0.993 ± 0.046
- GAGTTGCTTA — within error, 1.006 ± 0.01
- GAGTTGGGGA — within error, 1 ± 0.036
- GAGTTGTCGA — within error, 0.994 ± 0.022
- GAGTTGTTGG — lower, 0.968 ± 0.024
- GAGTTTAGAT — lower, 0.994 ± 0.018
- GAGTTTAGCG — lower, 0.982 ± 0.025
- GAGTTTCGTG — lower, 0.965 ± 0.01
- GATAAAAGTT — within error, 1.02 ± 0.066
- GATAAAGATA — within error, 1.02 ± 0.043
- GATAAAGGGT — within error, 1.005 ± 0.0052
- GATAAAGTTA — lower, 0.992 ± 0.013
- GATAAATGAT — within error, 1 ± 0.02
- GATAACATAC — higher, 1.368 ± 0.0047
- GATAACGAAG — within error, 1.008 ± 0.006
- GATAAGGAAC — lower, 0.9788 ± 0.0072
- GATAAGTTGG — within error, 0.935 ± 0.09
- GATAATAAGT — within error, 1.01 ± 0.016
- GATAATAATT — lower, 0.9969 ± 0.0091
- GATAATAGTG — within error, 1.08 ± 0.073
- GATAATATGG — lower, 0.9814 ± 0.0094
- GATAATATTT — lower, 0.986 ± 0.011
- GATAATCGAG — within error, 1.02 ± 0.018
- GATAATGAAC — within error, 1.02 ± 0.02
- GATAATTTCT — lower, 0.9886 ± 0.0046
- GATACACATG — within error, 1.04 ± 0.021
- GATACATGTG — within error, 1.048 ± 0.0086
- GATACCCATA — lower, 0.996 ± 0.016
- GATACCCTTG — within error, 1.01 ± 0.013
- GATACGATGG — lower, 0.983 ± 0.027
- GATACTGTAG — within error, 1.09 ± 0.049
- GATACTGTTG — lower, 0.988 ± 0.027
- GATAGAAGGT — within error, 1.04 ± 0.056
- GATAGATGGC — within error, 0.989 ± 0.039
- GATAGATTTA — lower, 0.9977 ± 0.0033
- GATAGCCAAT — within error, 1.02 ± 0.016
- GATAGGAGGA — within error, 1 ± 0.027
- GATAGGGTTT — within error, 1.06 ± 0.076
- GATAGGTTCG — lower, 0.983 ± 0.016
- GATAGTAATG — within error, 1.01 ± 0.018
- GATAGTACGG — within error, 1.01 ± 0.015
- GATAGTATTT — lower, 1.005 ± 0.0066
- GATAGTGAAT — lower, 0.962 ± 0.028
- GATAGTGAGA — the same, 1.03 ± 0.011
- GATAGTGAGG — lower, 0.9935 ± 0.0021
- GATAGTGAGT — lower, 0.988 ± 0.016
- GATAGTGCTG — within error, 1.05 ± 0.12
- GATAGTGGCA — the same, 1.03 ± 0.023
- GATAGTGTTG — within error, 0.992 ± 0.041
- GATAGTTGGT — within error, 1 ± 0.021
- GATATACTTT — within error, 0.99 ± 0.027
- GATATATCAG — lower, 0.9771 ± 0.0017
- GATATGAGCG — lower, 1.002 ± 0.0018
- GATATGATAC — higher, 1.077 ± 0.008
- GATATGCCTG — within error, 1.01 ± 0.069
- GATATGTGGA — within error, 0.995 ± 0.032
- GATATTAAGC — within error, 1.01 ± 0.026
- GATATTAATT — lower, 0.9784 ± 0.0031
- GATATTAGGC — lower, 0.9858 ± 0.009
- GATATTATTC — within error, 1.05 ± 0.079
- GATATTGGTG — within error, 1.024 ± 0.003
- GATATTTGGT — within error, 0.989 ± 0.048
- GATATTTTTT — lower, 0.989 ± 0.012
- GATCAATGGG — within error, 0.997 ± 0.036
- GATCAGATGT — lower, 0.958 ± 0.048
- GATCAGCCCC — within error, 1.02 ± 0.031
- GATCAGTTTT — lower, 0.977 ± 0.016
- GATCATAATA — within error, 0.995 ± 0.043
- GATCATCGGG — lower, 0.995 ± 0.015
- GATCATGTAC — higher, 1.14 ± 0.036
- GATCATGTTT — lower, 0.98194 ± 0.00037
- GATCATTCTG — lower, 0.966 ± 0.036
- GATCCAAGGG — within error, 1.01 ± 0.021
- GATCCCCCCC — within error, 1.06 ± 0.03
- GATCCGAGAC — higher, 1.516 ± 0.0088
- GATCCGGCGT — the same, 1.03 ± 0.053
